Earlier results as cited in PMC5998221.

How the values were obtained:
[1] = molecular target: Asp48 (UniProt position 66, TNRNTDGSTDY)
[2] = molecular target: Glu7 (UniProt position 25, VFGRCELAAAM)
[3] = molecular target: Glu35 (UniProt position 53, CAAKFESNFNT)
[4] = molecular target: Asp66 (UniProt position 84, RWWCNDGRTPG)
[5] = molecular target: Asp101 (UniProt position 119, KKIVSDGNGMN)
[6] = molecular target: Asp52 (UniProt position 70, TDGSTDYGILQ)
[7] = molecular target: Asp87 (UniProt position 105, ALLSSDITASV)
[8] = molecular target: Asp119 (UniProt position 137, RCKGTDVQAWI)
[9] = molecular target: Asp18 (UniProt position 36, KRHGLDNYRGY)

**Q.** Which pKa [1] does the source give for “Hen egg white lysozyme (HEWL, lysozyme C) (Gallus gallus)” here?
**A.** 1.4

**Q.** And the pKa [2]?
**A.** 2.6

**Q.** And the pKa [3]?
**A.** 6.1

**Q.** And the pKa [4]?
**A.** 1.2

**Q.** What about the pKa [5] of the same substance?
**A.** 4.5

**Q.** What about the pKa [6] of the same substance?
**A.** 3.6

**Q.** What about the pKa [7] of the same substance?
**A.** 2.2

**Q.** What about the pKa [8] of the same substance?
**A.** 3.5

**Q.** What about the pKa [9] of the same substance?
**A.** 2.8
